From patent US9533059 (GE HEALTHCARE, dated 2017)
Positions of bridges follow the written chain, without caps; N, C: chain ends.

Biological target: human c-Met receptor (human, UniProt P08581 25-1390)
Assay: cell-based or functional assay

Chain of human c-Met receptor (P08581 25-1390): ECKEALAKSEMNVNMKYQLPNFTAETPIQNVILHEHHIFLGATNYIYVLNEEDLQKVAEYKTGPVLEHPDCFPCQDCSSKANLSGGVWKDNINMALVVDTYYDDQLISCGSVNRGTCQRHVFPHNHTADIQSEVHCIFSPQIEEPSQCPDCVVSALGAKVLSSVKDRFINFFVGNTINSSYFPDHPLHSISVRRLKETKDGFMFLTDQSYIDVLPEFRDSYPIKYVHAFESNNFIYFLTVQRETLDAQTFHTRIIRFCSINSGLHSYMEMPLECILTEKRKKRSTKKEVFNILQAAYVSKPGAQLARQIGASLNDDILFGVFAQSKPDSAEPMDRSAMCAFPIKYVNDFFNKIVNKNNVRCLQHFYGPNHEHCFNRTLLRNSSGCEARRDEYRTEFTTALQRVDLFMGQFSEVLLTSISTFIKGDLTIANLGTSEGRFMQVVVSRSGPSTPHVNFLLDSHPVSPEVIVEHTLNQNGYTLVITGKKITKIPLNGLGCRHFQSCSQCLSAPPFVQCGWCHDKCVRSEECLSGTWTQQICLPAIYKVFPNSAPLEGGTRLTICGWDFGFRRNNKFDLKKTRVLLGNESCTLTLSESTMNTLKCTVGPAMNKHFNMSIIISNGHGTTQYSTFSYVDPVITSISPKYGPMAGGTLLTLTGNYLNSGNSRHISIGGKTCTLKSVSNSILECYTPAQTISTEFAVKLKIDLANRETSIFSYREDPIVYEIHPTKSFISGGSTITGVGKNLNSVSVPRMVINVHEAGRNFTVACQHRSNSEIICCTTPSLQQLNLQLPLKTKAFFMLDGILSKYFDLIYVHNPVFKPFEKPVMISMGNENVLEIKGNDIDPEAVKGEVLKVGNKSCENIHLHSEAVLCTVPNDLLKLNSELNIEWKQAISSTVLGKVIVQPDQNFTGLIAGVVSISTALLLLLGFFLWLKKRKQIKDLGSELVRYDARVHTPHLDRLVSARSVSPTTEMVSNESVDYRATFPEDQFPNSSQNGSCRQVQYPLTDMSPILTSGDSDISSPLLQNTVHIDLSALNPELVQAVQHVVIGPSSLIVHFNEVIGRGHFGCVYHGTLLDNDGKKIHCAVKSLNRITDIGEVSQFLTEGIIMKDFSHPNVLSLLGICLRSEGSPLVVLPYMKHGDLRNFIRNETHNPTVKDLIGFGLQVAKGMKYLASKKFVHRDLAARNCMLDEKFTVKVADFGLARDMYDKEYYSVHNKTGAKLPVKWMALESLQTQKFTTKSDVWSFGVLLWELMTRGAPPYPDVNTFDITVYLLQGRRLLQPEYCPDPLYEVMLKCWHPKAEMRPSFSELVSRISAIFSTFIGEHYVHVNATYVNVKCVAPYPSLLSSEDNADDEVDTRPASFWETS

Ac-AGSCYCSGPPRFECWCYETEGTGGGK(N‑(4-fluorobenzylidene)aminooxyacetyl)-NH2 (disulfide 6-14, 4-16) [Compound 3A]
HT-29 tumour uptake of Compound 3B with 1000-fold excess unlabelled peptide: 1.1 % id/g
reduction in HT-29 tumour uptake of Compound 3B with 1000-fold excess unlabelled peptide: 40%
